B1: “converted” BMP-1-3 protein (protein)
chain: AATSRPERVWPDGVIPFVIGGNFTGSQRAVFRQAMRHWEKHTCVTFLERTDEDSYIVFTYRPCGCCSYVGRRGGGPQAISIGKNCDKFGIVVHELGHVVGFWHEHTRPDRDRHVSIVRENIQPGQEYNFLKMEPQEVESLGETYDFDSIMHYARNTFSRGIFLDTIVPKYEVNGVKPPIGQRTRLSKGDIAQARKLYKCPACGETLQDSTGNFSSPEYPNGYSAHMHCVWRISVTPGEKIILNFTSLDLYRSRLCWYDYVEVRDGFWRKAPLRGRFCGSKLPEPIVSTDSRLWVEFRSSSNWVGKGFFAVYEAICGGDVKKDYGHIQSPNYPDDYRPSKVCIWRIQVSEGFHVGLTFQSFEIERHDSCAYDYLEVRDGHSESSTLIGRYCGYEKPDDIKSTSSRLWLKFVSDGSINKAGFAVNFFKEVDECSRPNRGGCEQRCLNTLGSYKCSCDPGYELAPDKRRCEAACGGFLTKLNGSITSPGWPKEYPPNKNCIWQLVAPTQYRISLQFDFFETEGNDVCKYDFVEVRSGLTADSKLHGKFCGSEKPEVITSQYNNMRVEFKSDNTVSKKGFKAHFFSDKDECSKDNGGCQQDCVNTFGSYECQCRSGFVLHDNKHDCKEAGCDHKVTSTSGTITSPNWPDKYPSKKECTWAISSTPGHRVKLTFMEMDIESQPECAYDHLEVFDGRDAKAPVLGRFCGSKKPEPVLATGSRMFLRFYSDNSVQRKGFQASHATECGGQVRADVKTKDLYSHAQFGDNNYPGGVDCEWVIVAEEGYGVELVFQTFEVEEETDCGYDYMELFDGYDSTAPRLGRYCGSGPPEEVYSAGDSVLVKFHSDDTITKKGFHLRYTSTKFQDTLHSRK
With B1, the “in vitro processing (enzyme activity)” value was “which properties were not exhibited with the “converted” BMP-1-3 protein” with calmodulin, P0DP23 and “which properties were not exhibited with the “converted” BMP-1-3 protein” in the data set with type IV collagen.

B2: placental BMP-1-3 protein (protein)
chain: AATSRPERVWPDGVIPFVIGGNFTGSQRAVFRQAMRHWEKHTCVTFLERTDEDSYIVFTYRPCGCCSYVGRRGGGPQAISIGKNCDKFGIVVHELGHVVGFWHEHTRPDRDRHVSIVRENIQPGQEYNFLKMEPQEVESLGETYDFDSIMHYARNTFSRGIFLDTIVPKYEVNGVKPPIGQRTRLSKGDIAQARKLYKCPACGETLQDSTGNFSSPEYPNGYSAHMHCVWRISVTPGEKIILNFTSLDLYRSRLCWYDYVEVRDGFWRKAPLRGRFCGSKLPEPIVSTDSRLWVEFRSSSNWVGKGFFAVYEAICGGDVKKDYGHIQSPNYPDDYRPSKVCIWRIQVSEGFHVGLTFQSFEIERHDSCAYDYQEVRDGHSESSTLIGRYCGYEKPDDIKSTSSRLWLKFVSDGSINKAGFAVNFFKEVDECSRPNRGGCEQRCLNTLGSYKCSCDPGYELAPDKRRCEAACGGFLTKLNGSITSPGWPKEYPPNKNCIWQLVAPTQYRISLQFDFFETEGNDVCKYDFVEVRSGLTADSKLHGKFCGSEKPEVITSQYNNMRVEFKSDNTVSKKGFKAHFFSDKDECSKDNGGCQQDCVNTFGSYECQCRSGFVLHDNKHDCKEAGCDHKVTSTSGTITSPNWPDKYPSKKECTWAISSTPGHRVKLTFMEMDIESQPECAYDHLEVFDGRDAKAPVLGRFCGSKKPEPVLATGSRMFLRFYSDNSVQRKGFQASHATECGGQVRADVKTKDLYSHAQFGDNNYPGGVDCEWVIVAEEGYGVELVFQTFEVEEETDCGYDYMELFDGYDSTAPRLGRYCGSGPPEEVYSAGDSVLVKFHSDDTITKKGFHLRYTSTKFQDTLHSRK
Consider B2, for which the “in vitro processing (enzyme activity)” value in the data set with calmodulin, P0DP23 is “processed calmodulin and type IV collagen”; with type IV collagen it was “processed calmodulin and type IV collagen”.

Source of the values: patent US20130171156.
